± gives the uncertainty stated by the source.

The source of these data is the supplement of paper PMC12042874.

The data set in a line: amyloid nucleation score (Sup35N fusion, yeast selection) (log enrichment); library NNK2; higher = more nucleation; inactive = no reads after selection. An outline of the steps: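 Nucleation score is defined as the DiMSum log enrichment of output over input reads, with centring on the mode score of non-aggregating sequences. A minimum of 100 input reads was required for each sequence. Reads came from Illumina sequencing of plasmid inserts from psi-negative yeast expressing Sup35N fused to peptides of 20 random codons, induced with 100 μM copper sulfate for 24 hours and grown 7 days at 30°C on medium lacking adenine and uracil.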
For KFTVDFYLTACTGTKIDFMV, the amyloid nucleation score was determined as 5.981 ± 0.04. NDFTFLMFDM: the amyloid nucleation score worked out at 1.25 ± 0.44. RDQFTISETRNAVDMDWKSK: the amyloid nucleation score is 0.007 ± 1.1. CTSYTEDFLWCFHNVTWKVR had an amyloid nucleation score of 0.105 ± 0.8. ITDVFSMWIF had an amyloid nucleation score of -0.73 ± 0.5. Consider SSLCGNCLGVEVVEQVISCR, for which the amyloid nucleation score is -0.12 ± 0.23.

Take TPPWQGSDWCGNHCNWQGPM: the amyloid nucleation score was 0.247 ± 0.8. As for MCSPSQEVITYHSDFWNGQK, the figure is 1.18 ± 0.68. As for TVFFGLVCRGPVKKDM, the amyloid nucleation score was 2.1 ± 0.17. Regarding RLVTGGVWMDSDDSYRVIET, the amyloid nucleation score is -0.032 ± 1.1.

As to SLADDSGNRT, the amyloid nucleation score was -0.289 ± 0.43. As for GVMSPHVTTFNILCVNNVLC, the amyloid nucleation score came to 8.72 ± 0.07. As for DHCMMLRFN, the amyloid nucleation score is 0.716 ± 0.6. Consider GVLYLFTVTVMDKKFTM, for which the amyloid nucleation score came out at 3.5 ± 0.077. CSSENLSLLIYSIKVGNGF showed an amyloid nucleation score of 3.28 ± 0.12. Turning to LRWQKNLNSL, the amyloid nucleation score is -0.778 ± 0.64. SMGFSSVPHSYTCTVEQG: the amyloid nucleation score came out at 6.06 ± 0.07.

In turn, ASGEDVNPSVCFHTTAMLYQ returned an amyloid nucleation score of 0.98 ± 0.66. As for TTRRC, the amyloid nucleation score was -0.43 ± 0.32. With VDCGFYSSIVAFYRYVHVPW, the amyloid nucleation score is -0.026 ± 0.27. Regarding NRETGANCARMPKVNVWEQQ, the amyloid nucleation score came to 0.865 ± 0.25. As for GRKCVTYSCPF, the figure is 0.185 ± 0.39; as for DYNFIQRNNCGALCKYAKTL, -1.55 ± 0.62; as for GFTRKASGADTRGRRTAVSS, 1.61 ± 0.37.

FVRQDYKRVRDLFPTLNFDK: the amyloid nucleation score was -0.949 ± 0.64.

The substance ILKIAARIYLGLWTVFDWCG came in with an amyloid nucleation score of 0.523 ± 0.27.

For the substance KEAPFCASGLPD, the amyloid nucleation score is -0.324 ± 1.1. As for GLHSGNFTACICM, the amyloid nucleation score was determined as 8.731 ± 0.055. The substance GSFSEYVLWT returned an amyloid nucleation score of 0.863 ± 0.41.

NVVSEEIMVCIVVSDLKRFR had an amyloid nucleation score of 0.619 ± 0.29. GNNIVDPMLYLEGFKFSPIP displayed an amyloid nucleation score of 0.082 ± 0.65. As for STVTELLRYPAHNFGEVHIL, the figure is 4.702 ± 0.047. CVVEQALLLWN showed an amyloid nucleation score of -0.243 ± 0.79. As for FCRETLRTRKAETLGTVNKE, the figure is -0.937 ± 0.78; as for TGHRTRVQTELLAFIAQVN, -0.526 ± 0.63. CVLSLNTGTASWITHVWKLY displayed an amyloid nucleation score of 0.349 ± 0.5. Turning to RVSLTIYKC, the amyloid nucleation score came out at 3.24 ± 0.12. For VRTWCAFYTVIRGWYRLLGS, the amyloid nucleation score is 0.231 ± 0.5. On to ICWPSTVDEGLPFYLWIYAM, for which the amyloid nucleation score amounted to 0.23 ± 0.39. Substance CLSCGLRTEDLYWDTRICSD returned an amyloid nucleation score of 1.18 ± 0.29. In the case of MYPRPVYNIKLFLKEVWGQY, the amyloid nucleation score was found to be 6.933 ± 0.046. Regarding RNRRVWM, the amyloid nucleation score is -0.003 ± 0.41. As for CNRYWGRPHGYFFSSSMCMV, the amyloid nucleation score is -1.28 ± 0.75. As to MGLYLWGFRTTSICGVLMDY, the amyloid nucleation score is -1.66 ± 0.76. Take CSYVNRLWVDSSVGHEEDAG: the amyloid nucleation score result is “inactive”.

Substance WIREY yielded an amyloid nucleation score of -0.43 ± 0.32. Substance KWCPLFKGSIGFSFLVHTMK yielded an amyloid nucleation score of -1.26 ± 1.1.

In turn, SVLMDYNSKWWDRMSSFIRP gave an amyloid nucleation score of -0.272 ± 0.48.

Substance LTCRTFYNNCVNEWSLHLSL gave an amyloid nucleation score of 4.07 ± 0.072. Regarding IPRIRR, the amyloid nucleation score came to 0.622 ± 0.66. On to KFRDVFFPY, for which the amyloid nucleation score is -0.76 ± 0.55. As for IESSEQSWT, the amyloid nucleation score was -0.75 ± 0.36. As for NNSYTGPVSCNHVAGCGTGH, the figure is -0.387 ± 1.1; as for GCQGVEGSESEQIDQIENWA, 0.978 ± 0.74. In the case of NRTCVLSNPFPFPHNIPGVC, the amyloid nucleation score is -0.815 ± 0.54. PNGFVFSCNRSPMAGMGIDE: the amyloid nucleation score was -2.14 ± 1.1. Consider FTLFVRHPGIVALERNFMVR, for which the amyloid nucleation score is -0.062 ± 0.35. In the case of DVVKNLYSSGLGLSTCMLYI, the amyloid nucleation score is -0.95 ± 0.55. For FSFNIPQFINV, the amyloid nucleation score entry is “inactive”. For the substance LTTKKLRSWV, the amyloid nucleation score is -0.895 ± 1.1.

On to FYHYDLLYRSGVLWRNHHGP, for which the amyloid nucleation score amounted to 2.77 ± 0.1. Consider LQRVF, for which the amyloid nucleation score came to 1.19 ± 0.47.

On to YSNRLYFVLEAVVYL, for which the amyloid nucleation score was 1.41 ± 0.32. As for TVMRGVLCMTILYLMWHKGY, the figure is 4.75 ± 0.08; as for CCLYYHMIKAWDTTGVRLVN, -1.4 ± 0.78. For the substance PHDGRNWFSVSDLMIGSDVG, the amyloid nucleation score worked out at 0.505 ± 0.36. On to GVLDRFPDESNILGVSFSCL, for which the amyloid nucleation score was -0.575 ± 0.26. As for MPPRGKSWSVRTSLWKQIFM, the figure is 3.24 ± 0.11.

Substance SLGEKRFACLATSCCADDCT showed an amyloid nucleation score of 0.508 ± 0.2. The substance IFCLPIKKRVMYNHGLTIFG registered an amyloid nucleation score of 0.461 ± 0.29. Turning to TVSIDLASIWALA, the amyloid nucleation score entry was “inactive”.

With ARSRFSYKMRYPACGVISSR, the amyloid nucleation score was -0.472 ± 0.79. SCWMMFHPNPMQLKFSYCVE: the amyloid nucleation score is -0.69 ± 0.33.

Take APSGRHFFTFTPC: the amyloid nucleation score was determined as 0.605 ± 0.36. For the substance DDYRMVIVVT, the amyloid nucleation score is -0.307 ± 0.33.

Take SRVWFVNPAPYPADTSELAK: the amyloid nucleation score was determined as 0.509 ± 0.8. In the case of REWVRYCRCWSCYYPTFFS, the amyloid nucleation score was -0.198 ± 0.63.

SNMASIFTPKRSFNSEVENQ registered an amyloid nucleation score of -1.31 ± 0.61.

RRSQLRLILTFR yielded an amyloid nucleation score of -0.223 ± 0.29. In turn, FSTCYPPSDWVSRMASETLN displayed an amyloid nucleation score of -0.096 ± 0.65. CYFSLQNSKDMRDLELDAIN: the amyloid nucleation score was -1.46 ± 0.55. As for YWKVFFKAGWVVQSSAGMSA, the figure is 4.64 ± 0.068; as for SFIVQHE, 0.16 ± 0.55; as for ATKRGVHSQLCDCLRCMEFS, 0.386 ± 0.32. VKFWYWAVDLDSCVRCGDGA returned an amyloid nucleation score of 6.586 ± 0.049. In turn, FIRSIHCVKMDELAWLLSVS registered an amyloid nucleation score of 0.252 ± 0.46. As for WYSSSIGHKMWVTYGSLWGQ, the amyloid nucleation score came out at 0.505 ± 0.54. In the case of MKSNSLSGRCSQFHLES, the amyloid nucleation score was -0.184 ± 1.1.

Consider RLDLYRNMAMVVWQSIDEPP, for which the amyloid nucleation score was 0.574 ± 0.41. In the case of CYGRIM, the amyloid nucleation score came to 1.74 ± 0.099. Consider SWKWYRS, for which the amyloid nucleation score amounted to 0.157 ± 1.

In turn, YGFPDF yielded an amyloid nucleation score of -1.12 ± 1.1. Consider SFAAMLVSSKVVGWVTGRAT, for which the amyloid nucleation score is 1.68 ± 0.21. Regarding MMIAWFSRMCFF, the amyloid nucleation score came out at 2.92 ± 0.1. As to FGFGRRKSKKWLVDLDPRR, the amyloid nucleation score entry was “inactive”. As for TCARFVGMEM, the figure is 1.22 ± 0.27; as for VFLGVSGETVNSTGYFTGMN, -2.13 ± 1.1.

For the substance YWYWWSSWY, the amyloid nucleation score turned out to be 1.6 ± 0.29. As for DMDRCLGY, the figure is 0.812 ± 0.2; as for LRIICMSTMWRKCFRGIATA, -0.195 ± 0.39; as for EVLRYGAVWMISRLVGLSLP, 0.754 ± 0.31. As for GGREARMGRKKGERVYRVRF, the figure is 0.657 ± 0.56; as for IRRVSAQVCINWSIEWKSTR, 1.07 ± 0.33; as for HVLYDCMGVIIKSCHYLDLC, -0.508 ± 0.37. As for FTNNSPARSCDRVHGDGVRH, the amyloid nucleation score was determined as 0.376 ± 0.35. TSVNALFRWPRLFSYRREPV displayed an amyloid nucleation score of 0.202 ± 0.79.

Turning to INNQGFIRPDNDSCYRFWIS, the amyloid nucleation score entry is “inactive”. The substance KLPMRNFRDVCEADLHPVK came in with an amyloid nucleation score of 1.11 ± 0.61. Regarding TQIFYSLRILLVDKLVSCGA, the amyloid nucleation score is -0.787 ± 0.39. FSMFMDIRRFMGSRWCV registered an amyloid nucleation score of 0.089 ± 1.1. Turning to HFNVPCNCSNCSYGTILSIT, the amyloid nucleation score was -0.305 ± 0.8. In turn, KHSWSIALV returned an amyloid nucleation score of 0.239 ± 0.65. In turn, SGFSLDLLVGGPCVPDLTVR gave an amyloid nucleation score of 0.228 ± 1. As for TFAVENHFFMEVLRRKVLIG, the entry is “inactive”; as for WSVGVESSKDQSLDQFGSD, -0.184 ± 1.1; as for LVSRCDDACGIQTGNMV, 0.043 ± 0.33. For the substance GNVECS, the amyloid nucleation score was -0.463 ± 0.45. IYTLL came in with an amyloid nucleation score of -0.228 ± 1.1.

As for PNNINRFRRSYFY, the amyloid nucleation score is -1.14 ± 0.49.

On to NYDSSDLTLFDVSRRPLLER, for which the amyloid nucleation score result is “inactive”. For the substance EACVISNGISILL, the amyloid nucleation score is -0.54 ± 0.35. As for FILRHQFCLRTLIYGPSIFF, the figure is 7.465 ± 0.045; as for LGQSCTYQCQQLCSLSHNRV, -0.214 ± 1.1; as for PRKDLPEYSLYSDLEPLVCN, -1.25 ± 0.62.

As to ISFWYHSKTS, the amyloid nucleation score came to 0.318 ± 0.57.

Turning to CCNMTHYDFSGYNDGAMQDC, the amyloid nucleation score is -0.424 ± 0.76. As to VATLMIKFR, the amyloid nucleation score amounted to 4.116 ± 0.036. As for VKASFS, the figure is 0.798 ± 0.44; as for IVKFDVRVMCADLIGSHGQW, 7.02 ± 0.085. As for GLGLICLQMGGFCMWRFRRM, the figure is 0.197 ± 0.24; as for HGLVGESVRSYQTQRQVTMA, 0.544 ± 0.4; as for RCYPS, 0.277 ± 0.17. AANWGNRGYMVCEHCVIDV displayed an amyloid nucleation score of -0.054 ± 0.46. As for GSKDFLV, the figure is -0.047 ± 1.1; as for TVGLIRLRLSILYFGPLDSV, 0.115 ± 0.56. As for EFKHSLIVASARRRNDFGYR, the figure is 0.224 ± 0.43; as for VMDCLMLSNMHLYIVLESKS, 5.08 ± 0.061; as for YNYWMQSLGSWVEVLSSVSV, -0.365 ± 0.5. Take RRIKPIVLPTVCFYYVSITS: the amyloid nucleation score result is “inactive”. SPALKPLGRMEYGVSGR: the amyloid nucleation score stood at 0.072 ± 0.29.
